T1: human IL-2 receptor IL-2Rα/IL-2Rβ/γc on HEK-Blue IL-2 cells (UniProt P01589 22-272; P14784 27-551; P31785 23-369)
T1 chain 1: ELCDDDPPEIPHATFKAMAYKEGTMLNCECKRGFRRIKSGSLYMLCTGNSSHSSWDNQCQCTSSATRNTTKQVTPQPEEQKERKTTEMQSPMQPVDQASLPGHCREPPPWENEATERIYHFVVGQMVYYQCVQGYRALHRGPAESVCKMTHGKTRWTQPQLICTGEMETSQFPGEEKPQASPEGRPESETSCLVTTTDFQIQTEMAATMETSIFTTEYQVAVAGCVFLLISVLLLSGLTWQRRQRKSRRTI
T1 chain 2: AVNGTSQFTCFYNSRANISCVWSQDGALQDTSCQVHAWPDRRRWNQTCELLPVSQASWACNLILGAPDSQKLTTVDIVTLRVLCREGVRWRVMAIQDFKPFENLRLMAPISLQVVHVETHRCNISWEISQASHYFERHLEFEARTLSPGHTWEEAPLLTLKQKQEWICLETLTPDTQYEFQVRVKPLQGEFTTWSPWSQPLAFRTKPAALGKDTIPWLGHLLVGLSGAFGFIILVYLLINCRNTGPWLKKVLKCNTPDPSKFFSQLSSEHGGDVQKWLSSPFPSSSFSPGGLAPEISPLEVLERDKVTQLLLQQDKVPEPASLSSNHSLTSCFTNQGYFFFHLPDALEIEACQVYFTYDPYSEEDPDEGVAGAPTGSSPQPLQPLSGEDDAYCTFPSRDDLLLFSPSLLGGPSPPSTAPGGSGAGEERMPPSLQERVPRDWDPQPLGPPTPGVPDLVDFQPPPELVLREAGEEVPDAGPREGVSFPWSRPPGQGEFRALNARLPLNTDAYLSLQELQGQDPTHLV
T1 chain 3: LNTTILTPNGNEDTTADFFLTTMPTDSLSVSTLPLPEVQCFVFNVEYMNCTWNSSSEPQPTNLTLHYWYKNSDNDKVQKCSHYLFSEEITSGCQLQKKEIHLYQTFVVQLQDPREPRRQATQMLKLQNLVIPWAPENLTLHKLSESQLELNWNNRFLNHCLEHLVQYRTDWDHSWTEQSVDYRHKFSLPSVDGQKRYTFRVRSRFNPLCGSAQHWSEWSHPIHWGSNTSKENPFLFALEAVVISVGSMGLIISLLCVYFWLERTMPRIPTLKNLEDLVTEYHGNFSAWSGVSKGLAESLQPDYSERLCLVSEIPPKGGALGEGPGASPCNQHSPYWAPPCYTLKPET

B1: BsVHH-9 (35x18) (antibody)
chain: QVQLQESGGGLVQGGGSLRLSCAASGGIFSSYAMGWFRQAPGKEREFVAAISRSGRSTNYADSVKGRFTISRDNAKSTVYLQMNSLKPEETAVYYCAAGRYYNSAYDPSPGDFGSWGHGTQVTVSSGGGGSGGGGSGGGGSGSQVQLVESGGGLVQPGGSLRLSCAISGGTLDSYGIGWVRQAPGKQREGVSCMSRSDDRTYYADSVKGRFTISKDSAKNTVYLQMTSLKPEDTAVYYCAAVDAYGCSLVQPTTYDFWGLGTQVTVSSGGGGSGGGGSGGGGSTVSSDKTHTCPPCPAPEAAGGPSVFLFPPKPKDTLMISRTPEVTCVVVDVSHEDPEVKFNWYVDGVEVHNAKTKPREEQYNSTYRVVSVLTVLHQDWLNGKEYKCKVSNKALGAPIEKTISKAKGQPREPQVYTLPPSRDELTKNQVSLTCLVKGFYPSDIAVEWESNGQPENNYKTTPPVLDSDGSFLLYSKLTVDKSRWQQGNVFSCSVMHEALHNHYTQKSLSLSPGK
B2: BsVHH-7 (31x18) (antibody)
chain: QVQLVESGGGLVQAGGSLRLSCTGYGGAFTGYALGWFRQAPGKEREFVARINWSGSFTYYASSVKGRFTISRDNAKNTMYLQMNNLKPEDTAVYYCAADNPSTLATDYDNWGQGTQVTVSSGGGGSGGGGSGGGGSGSQVQLVESGGGLVQPGGSLRLSCAISGGTLDSYGIGWVRQAPGKQREGVSCMSRSDDRTYYADSVKGRFTISKDSAKNTVYLQMTSLKPEDTAVYYCAAVDAYGCSLVQPTTYDFWGLGTQVTVSSGGGGSGGGGSGGGGSTVSSDKTHTCPPCPAPEAAGGPSVFLFPPKPKDTLMISRTPEVTCVVVDVSHEDPEVKFNWYVDGVEVHNAKTKPREEQYNSTYRVVSVLTVLHQDWLNGKEYKCKVSNKALGAPIEKTISKAKGQPREPQVYTLPPSRDELTKNQVSLTCLVKGFYPSDIAVEWESNGQPENNYKTTPPVLDSDGSFLLYSKLTVDKSRWQQGNVFSCSVMHEALHNHYTQKSLSLSPGK
B3: BsVHH-8 (32x18) (antibody)
chain: QVQLVESGGGLVQAGGSLRLSCAASGRTFGSTAVGWFRQVPGKEREFVSAINRSGSATTYADSVKGRFTISRDNAKNTVYLQMNSLTPEDTGVYYCAADSLPYGRPYYFQRSAGEYDYWGQGTQVTVSSGGGGSGGGGSGGGGSGSQVQLVESGGGLVQPGGSLRLSCAISGGTLDSYGIGWVRQAPGKQREGVSCMSRSDDRTYYADSVKGRFTISKDSAKNTVYLQMTSLKPEDTAVYYCAAVDAYGCSLVQPTTYDFWGLGTQVTVSSGGGGSGGGGSGGGGSTVSSDKTHTCPPCPAPEAAGGPSVFLFPPKPKDTLMISRTPEVTCVVVDVSHEDPEVKFNWYVDGVEVHNAKTKPREEQYNSTYRVVSVLTVLHQDWLNGKEYKCKVSNKALGAPIEKTISKAKGQPREPQVYTLPPSRDELTKNQVSLTCLVKGFYPSDIAVEWESNGQPENNYKTTPPVLDSDGSFLLYSKLTVDKSRWQQGNVFSCSVMHEALHNHYTQKSLSLSPGK
B4: BsVHH-15 (36x19) (antibody)
chain: QVQLVESGGGLVQAGGSLRLSCAASGRTLSRYAMGWFRQAPGSEREFVAASSWGGDTFYADSVEGRFTFSRDNAKNAVYLQMNSLQPEDTAAYYCAAAPTSFPTTAYSSSNSYAYWGQGTQVTVSSGGGGSGGGGSGGGGSGSEVQLVESGGGLVQTGGSLRLSCAASGGTFSRDAMAWFRQVPGKEREFVALISWSGATTNYADSVKGRFAISRDNGKNTVYLQMNRLKPADTAIYYCAADRRPMGSRSYFEPTEYDDWGQGTQVTVSSGGGGSGGGGSGGGGSTVSSDKTHTCPPCPAPEAAGGPSVFLFPPKPKDTLMISRTPEVTCVVVDVSHEDPEVKFNWYVDGVEVHNAKTKPREEQYNSTYRVVSVLTVLHQDWLNGKEYKCKVSNKALGAPIEKTISKAKGQPREPQVYTLPPSRDELTKNQVSLTCLVKGFYPSDIAVEWESNGQPENNYKTTPPVLDSDGSFLLYSKLTVDKSRWQQGNVFSCSVMHEALHNHYTQKSLSLSPGK
B5: 1-MP01H01 VHH-hFc, monospecific monovalent (Fc fusion)
VHH: EVQLVESGGGLVQAGGSLRLSCAASGRTFRTHNMGWFRRAPGKEREFVAAISWNVDNTLYADSVKGRFTISRDNGRNMVYLQMNSLKPEDTAVYYCAADNIPLSSDVAATATEYDYWGQGTQVTVSS
B6: 4-MP01F04 VHH-hFc, monospecific monovalent (Fc fusion)
VHH: QVQLVESGGGLVQAGGSLRLSCAASGGTFRTRNMGWFRRAPGKEREFVAAVSWNVDNKLYADSVKGRFTISRDNGRNMVYLQMNSLKPEDTAVYYCAADNIPLSSDMRPTATEYDYWGQGTQVTVSS
B7: 12-MP05B12 VHH-hFc, monospecific monovalent (Fc fusion)
VHH: QVQLVESGGGLVQAGGSLRLSCAASGFTFDGYAIGWFRQAPGKEREGVSYITGSDGSTYYADSVKGRFTISSNNAKNTVYLHMNSLKPDDAAVYYCAIDRLGSRGAYVPIWWRSSDMDLWGKGTLVTVSS
B8: 5-MP01F05 VHH-hFc, monospecific monovalent (Fc fusion)
VHH: EVQLVESGGGLVQAGGSLRLSCAASIRAFTTWSMAWFRQAPGKEREYVARINVSGSVTYYADFVKGRFTISRDNAKKTMYLEMNNLKPEDTALYYCAADRTGVGTNDYNYWGQGTQVTVSS
B9: 10-MP05F03 VHH-hFc, monospecific monovalent (Fc fusion)
VHH: QVQLVESGGGLVQAGGSLRLSCAASGIPFDNYAMGWFRQAPGKEREFVAARDLEGIITRYGDSVKGRFTISRGNAKNTVFLQMNSLKPEDTAVYYCAARDGGVVAGSRSSAQYNYWGQGTQVTVSS
B10: 13-MP05E12 (antibody, V domains shown)
VH: QVQLQESGGGLVQAGDSLRLSCAASGFNFGWHAMGWFRQAPGKEREFVATITWTGRDTYYADSVRGRFTISKDNAKDTLFLQMNSLRPDDTGVYYCAKARERATWAYSEDDCDYWGQGTQVTVSS
B11: 3-MP01E03 VHH-hFc, monospecific monovalent (Fc fusion)
VHH: QVQLVESGGGLVQAGGSLRLSCTASGRTLSSYSMAWFRQAADKGREFVTAISSSGVVTHVLDSVKGRFTISRDNAKNTVYLQMNSLQPEDTALYFCAGTASSYSTYEANYNYWGQGTLVTVSS
B12: 11-MP05H04 VHH-hFc, monospecific monovalent (Fc fusion)
VHH: QLQLVESGGGLVQAGGSLRLSCAASGLTFEGYAIGWFRQAPGKEREGVSYITGSDGTTYYINSVKGRFTISSDNAKSTVYLQMNTLKPEDTAVYYCAVDRLGSQGRYASAWWRSGDMDLWGKGTQVTVSS
B13: 8-MP01C12 VHH-hFc, monospecific monovalent (Fc fusion)
VHH: QVQLVESGGGLVQPGGSLRLSCATSGFTFSNNFMSWVRQAPGKGLEFVSTISYGGESTTYAEAVKGRFTISRDNAKNTLYLQMNNLKPEDTAIYYCAKATSYTSIRGAPRGQGTQVTVSS
B14: 6-MP01G05 VHH-hFc, monospecific monovalent (Fc fusion)
VHH: QVQLQESGGGLVQAGGSLRLSCAASGRTFSSYAMGWFRQAPGKEREFVAVISWNVDNTEYTDSVKGRFTISRDNDKNMVYLQMNSLKPEDTAVYYCAADSIPLSSDMSPTATEYGYWGQGTQVTVSS
B15: 9-MP05G01 VHH-hFc, monospecific monovalent (Fc fusion)
VHH: EVQLVESGGGLVQAGGSLRLSCAASGGSIYTYNMGWFRQAPGKEREFVAGTLWSGGDSVYADFAKGRFTLSRENAKNTLYLQMNSLKPEDTATYYCAIDPLSLTSDWRVDELSSWGKGTLVTVSS
B16: 7-MP01G08 VHH-hFc, monospecific monovalent (Fc fusion)
VHH: EVQLVESGGGLVQAGGSLRLSCAASGRAFSMYNMGWFRQAPGKEREFVAATGWSGANTPYADSVKGRFTISRDNTQNTVYLQMNSLKPEDTATYYCAADSIRLRSDVTRIPLEYDYWGQGTQVTVSS

The first test has as its target T1, human IL-2 receptor IL-2Rα/IL-2Rβ/γc on …. The test can be described thus: FACS cell binding; avid.
B1 returned an EC50 of 1.3 nM. The same measure, in the same setting: for B2 the value was 23.5 nM; for B3, 1.9 nM; for B4, 88.3 nM.

The target is the same in the next test. The test can be described thus: FACS cell binding; monovalent.
Take B5: the EC50 is 135 nM. The molecule B6 returned a concentration for a half-maximal effect (EC50) of 2.2 nM. The same measure, in the same setting: for B7 the value was 8.5 nM; for B8, 9.2 nM. Same read-out and setting: in the case of B9 it was 2 nM.

The molecule B10 came in with an EC50 of 3.2 nM.

The molecule B11 had an EC50 of 3.3 nM. The molecule B12 came in with an EC50 of 5.9 nM.

B13 yielded an EC50 of 2.7 nM. Still for that read-out and setting: in the case of B14 it was 5.6 nM; in that of B15, 2.3 nM. The same measure, in the same setting: for B16 the value was 4.7 nM.

The record behind these values is US20240409645A1 (published 2024).
